Reference: patent US20240165153A1

How the values were obtained:
[1] = molecular target: CD20 (UniProt P11836); test: cell-based or functional assay
[2] = molecular target: CD19 (UniProt P15391); test: cell-based or functional assay
Chain of UniProt P15391 (P15391 20-556 limits assumed): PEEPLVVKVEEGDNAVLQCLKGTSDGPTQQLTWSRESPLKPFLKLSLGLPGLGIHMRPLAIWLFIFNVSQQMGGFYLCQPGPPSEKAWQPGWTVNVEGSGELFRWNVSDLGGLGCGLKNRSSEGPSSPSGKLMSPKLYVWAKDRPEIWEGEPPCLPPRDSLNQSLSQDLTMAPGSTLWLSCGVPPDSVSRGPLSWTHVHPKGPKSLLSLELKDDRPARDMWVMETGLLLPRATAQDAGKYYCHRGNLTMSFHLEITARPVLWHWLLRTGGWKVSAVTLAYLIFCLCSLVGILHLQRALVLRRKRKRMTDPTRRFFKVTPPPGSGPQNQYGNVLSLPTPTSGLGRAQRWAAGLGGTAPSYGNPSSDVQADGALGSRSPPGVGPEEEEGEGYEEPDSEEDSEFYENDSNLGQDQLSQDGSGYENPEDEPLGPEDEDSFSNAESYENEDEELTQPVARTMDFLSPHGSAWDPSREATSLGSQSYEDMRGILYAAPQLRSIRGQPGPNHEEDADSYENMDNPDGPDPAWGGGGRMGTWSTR

Chain of UniProt P11836 (P11836 whole entry): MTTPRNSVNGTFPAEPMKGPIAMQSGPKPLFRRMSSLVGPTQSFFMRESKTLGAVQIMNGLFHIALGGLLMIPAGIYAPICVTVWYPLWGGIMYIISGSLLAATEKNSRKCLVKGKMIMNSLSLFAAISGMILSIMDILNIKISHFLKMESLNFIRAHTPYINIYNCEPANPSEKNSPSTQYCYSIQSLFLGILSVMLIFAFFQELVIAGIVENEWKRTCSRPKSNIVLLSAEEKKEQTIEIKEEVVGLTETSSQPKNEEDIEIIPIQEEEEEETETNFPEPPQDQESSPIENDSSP

In the case of “10-5-2020 Hu19-CD828Z (anti-CD19 chimeric antigen receptor)”, the IFNγ release; T cells transduced with monospecific 10-5-2020 Hu19-CD828Z, with CD19-negative CD20-K562 (untransduced T cells: 201.3) [1] is reported as 291, the IFNγ release; T cells transduced with monospecific 10-5-2020 Hu19-CD828Z, with ST486 CD19-negative (untransduced T cells: 1464.3) [1] is reported as 1360 and the IFNγ release; T cells transduced with monospecific 10-5-2020 Hu19-CD828Z, with Toledo CD19-negative (untransduced T cells: 372.7) [1] is reported as 702. It also gave a CFSE median fluorescence intensity (lower = more proliferation), FIG. 9B, CD4+ T cells with Hu1928-Hu20BB long 10-21-2020, 4 days with CD19-K562 (NGFR-K562 control 28478) (relative fluorescence units) [2] of 1410, a CFSE median fluorescence intensity (lower = more proliferation), FIG. 10B, CD8+ T cells with Hu1928-Hu20BB long 10-21-2020, 4 days with CD19-K562 (NGFR-K562 control 24978) (relative fluorescence units) [2] of 1770 and an IFNγ ELISA of supernatant; T cells transduced with Hu1928-Hu20BB long 10-21-2020, overnight with CD19-K562 [2] of 8210 pg/mL. It also gave an IFNγ release; T cells transduced with Hu1928-Hu20BB long 10-21-2020, with CD19-K562 [2] of 37500, an IFNγ release; T cells transduced with monospecific 10-5-2020 Hu19-CD828Z, with CD19-K562 (untransduced T cells: 217.2) [2] of 22000 and an IFNγ release; T cells transduced with monospecific 10-5-2020 Hu19-CD828Z, with ST486, which expresses CD19 (weakly) and CD20 (untransduced T cells: 1674.8) [2] of 2070. The IFNγ release; T cells transduced with monospecific 10-5-2020 Hu19-CD828Z, with Toledo, which expresses CD19 and CD20 (untransduced T cells: 542.3) [2] was 3200 and the IL-2 ELISA of supernatant; T cells transduced with Hu1928-Hu20BB long 10-21-2020, overnight with CD19-K562 [2] was 496 pg/mL.
